Changes are numbered by the printed parent chain. Numbers in names are those of the source. Blank lines part the entries; values can stand above or below the binder they belong to.
Legend:
[1] = molecular target: T1, recombinant cynomolgus PDGF-BB (cynomolgus monkey, UniProt P01127 82-190 (human entry), limits assumed); experiment: cell-based or functional assay
T1 chain: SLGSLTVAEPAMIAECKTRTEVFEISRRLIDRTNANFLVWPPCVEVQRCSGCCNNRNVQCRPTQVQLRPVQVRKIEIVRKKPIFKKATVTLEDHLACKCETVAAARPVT

[2] = molecular target: recombinant murine PDGF-BB (mouse, UniProt P31240 82-190); experiment: cell-based or functional assay
[3] = molecular target: recombinant human PDGF-BB (human, UniProt P01127 82-190); experiment: cell-based or functional assay
recombinant rat PDGF-BB = recombinant rat PDGF-BB (rat, UniProt Q05028 74-182); experiment: cell-based or functional assay
[4] = molecular target: T2, recombinant human VEGF165 (human, UniProt P15692 207-395); experiment: competition ELISA: DVD-Ig titrated against biotinylated hVEGF165 binding to coated hVEGFR2-Fc
T2 construct: also called hVEGF165; huVEGF-A165
Procedure: To identify molecules that could block the binding of hVEGF₁₆₅ to the hVEGF-R2 (KDR/Flk-1) receptor, a competition ELISA was performed. […] Plates were then washed four times with wash buffer (TBS, 0.05% Tween-20) and blocked with Superblock blocking buffer (Thermo Scientific, cat#37535). […] The pre-incubated sample/hVEGF₁₆₅ complex was added to the coated plate at 50 μL in duplicate and incubated for 30 minutes at 25° C. with shaking. Following incubation, plates were washed four times with wash buffer. Streptavidin-polyHRP-40 (Fitzgerald cal#65r-s104phrp) was diluted in assay diluent (10% Superblock containing 0.05% surfactamps) and added to plates (50 μL) for 45 minutes at 25° C. with shaking. Plates were washed four times with wash buffer and developed with the addition of Enhanced K-blue TMB substrate (Neogen cat#308177). The reaction was stopped with 2N sulfuric acid (VWR, cat# BDH3500-1) and the absorbance was read at 450 nm-570 nm. A decrease in observed optical density indicates the test molecule is blocking the hVEGF₁₆₅ binding to the hVEGF-R2-Fc. Data was analyzed using Softmax Pro 4.8 software and IC₅₀ values calculated using a sigmoidal dose response (variable slope) fit in GraphPad Prism 5.

[5] = molecular target: recombinant human PDGF-BB (human, UniProt P01127 82-190); experiment: cell-based or functional assay; remark: listed apart in the source

Sequence of recombinant murine PDGF-BB (P31240 82-190 limits assumed): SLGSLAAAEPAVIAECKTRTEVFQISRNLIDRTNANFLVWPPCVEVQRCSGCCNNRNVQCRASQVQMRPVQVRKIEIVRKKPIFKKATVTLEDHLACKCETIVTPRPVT
Sequence of recombinant rat PDGF-BB (Q05028 74-182 limits assumed): as the sequence (P31240 82-190 limits assumed) above, with I83V, I102V counted along it
T2 sequence (P15692 other isoform, or with tags, fused parts or gaps limits assumed): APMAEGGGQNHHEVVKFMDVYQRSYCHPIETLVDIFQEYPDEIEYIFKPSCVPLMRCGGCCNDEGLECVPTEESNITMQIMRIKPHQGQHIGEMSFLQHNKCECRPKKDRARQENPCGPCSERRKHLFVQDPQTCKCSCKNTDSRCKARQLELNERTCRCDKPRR

B1: 4G8.3-LS-9E8.4 (g) anti-VEGF-A/anti-PDGF-BB DVD-Ig (PR-1572106) (bispecific antibody, human IgG1, kappa, L234A L235A)
heavy: EVQLVQSGSELKKPGASVKVSCKASGYTFTNYGMYWVRQAPGQGLEWMGWINTETGKPTYADDFKGRFVFSLDTSVSTAYLQISSLKAEDTAVYYCARTNYYYRSYIFYFDYWGQGTMVTVSSASTKGPSVFPLAPEVTLRESGPALVKPTQTLTLTCTFSGFSLSTYGMGVGWIRQPPGKALEWLANIWWDDDKYYNPSLKNRLTISKDTSKNQVVLTMTNMDPVDTATYYCARIESIGTTYSFDYWGQGTMVTVSSASTKGPSVFPLAPSSKSTSGGTAALGCLVKDYFPEPVTVSWNSGALTSGVHTFPAVLQSSGLYSLSSVVTVPSSSLGTQTYICNVNHKPSNTKVDKKVEPKSCDKTHTCPPCPAPEAAGGPSVFLFPPKPKDTLMISRTPEVTCVVVDVSHEDPEVKFNWYVDGVEVHNAKTKPREEQYNSTYRVVSVLTVLHQDWLNGKEYKCKVSNKALPAPIEKTISKAKGQPREPQVYTLPPSREEMTKNQVSLTCLVKGFYPSDIAVEWESNGQPENNYKTTPPVLDSDGSFFLYSKLTVDKSRWQQGNVFSCSVMHEALHNAYTQKSLSLSPGK
light: DTVLTQSPATLSLSPGERATLSCRASESVSTHMHWYQQKPGQAPRLLIYGASNLESGVPARFSGSGSGTDFTLTISSLEPEDFAVYFCQQSWNDPFTFGQGTKLEIKRTVAAPEFVLTQSPGTLSLSPGERATLSCERSSGDIGDSYVSWYQQKPGQAPRLVIYADDQRPSGIPDRFSGSGSGTDFTLTISRLEPEDFAVYYCQSYDINIDIVFGGGTKVEIKRTVAAPSVFIFPPSDEQLKSGTASVVCLLNNFYPREAKVQWKVDNALQSGNSQESVTEQDSKDSTYSLSSTLTLSKADYEKHKVYACEVTHQGLSSPVTKSFNRGEC
Potency IC50 (nM) cynoPDGF-BB (NIH-3T3 proliferation) [1]: 0.094 nM
Potency IC50 (nM) mPDGF-BB (NIH-3T3 proliferation) [2]: 0.14 nM

B3: 4G8.3-GS-9E8.4 (g) anti-VEGF-A/anti-PDGF-BB DVD-Ig (PR-1572102) (bispecific antibody, human IgG1, kappa, L234A L235A)
heavy: EVQLVQSGSELKKPGASVKVSCKASGYTFTNYGMYWVRQAPGQGLEWMGWINTETGKPTYADDFKGRFVFSLDTSVSTAYLQISSLKAEDTAVYYCARTNYYYRSYIFYFDYWGQGTMVTVSSGGGGSGGGGSEVTLRESGPALVKPTQTLTLTCTFSGFSLSTYGMGVGWIRQPPGKALEWLANIWWDDDKYYNPSLKNRLTISKDTSKNQVVLTMTNMDPVDTATYYCARIESIGTTYSFDYWGQGTMVTVSSASTKGPSVFPLAPSSKSTSGGTAALGCLVKDYFPEPVTVSWNSGALTSGVHTFPAVLQSSGLYSLSSVVTVPSSSLGTQTYICNVNHKPSNTKVDKKVEPKSCDKTHTCPPCPAPEAAGGPSVFLFPPKPKDTLMISRTPEVTCVVVDVSHEDPEVKFNWYVDGVEVHNAKTKPREEQYNSTYRVVSVLTVLHQDWLNGKEYKCKVSNKALPAPIEKTISKAKGQPREPQVYTLPPSREEMTKNQVSLTCLVKGFYPSDIAVEWESNGQPENNYKTTPPVLDSDGSFFLYSKLTVDKSRWQQGNVFSCSVMHEALHNAYTQKSLSLSPGK
light: DTVLTQSPATLSLSPGERATLSCRASESVSTHMHWYQQKPGQAPRLLIYGASNLESGVPARFSGSGSGTDFTLTISSLEPEDFAVYFCQQSWNDPFTFGQGTKLEIKRGGSGGGGSGEFVLTQSPGTLSLSPGERATLSCERSSGDIGDSYVSWYQQKPGQAPRLVIYADDQRPSGIPDRFSGSGSGTDFTLTISRLEPEDFAVYYCQSYDINIDIVFGGGTKVEIKRTVAAPSVFIFPPSDEQLKSGTASVVCLLNNFYPREAKVQWKVDNALQSGNSQESVTEQDSKDSTYSLSSTLTLSKADYEKHKVYACEVTHQGLSSPVTKSFNRGEC
Co-incubation Potency IC50 (nM) hPDGF-BB (NIH-3T3 proliferation, DVD-Ig pre-incubated with excess hVEGF165) [3]: 0.051 nM
Potency IC50 (nM) cynoPDGF-BB (NIH-3T3 proliferation) [1]: 0.139 nM
Potency IC50 (nM) ratPDGF-BB (NIH-3T3 proliferation) (recombinant rat PDGF-BB): 2.2 nM
Potency IC50 (nM) mPDGF-BB (NIH-3T3 proliferation) [2]: 0.174 nM

B5: 4G8.3-SL-9E8.4 DVD-Ig (PR-1564012) (bispecific antibody, human IgG1, kappa, L234A L235A)
heavy: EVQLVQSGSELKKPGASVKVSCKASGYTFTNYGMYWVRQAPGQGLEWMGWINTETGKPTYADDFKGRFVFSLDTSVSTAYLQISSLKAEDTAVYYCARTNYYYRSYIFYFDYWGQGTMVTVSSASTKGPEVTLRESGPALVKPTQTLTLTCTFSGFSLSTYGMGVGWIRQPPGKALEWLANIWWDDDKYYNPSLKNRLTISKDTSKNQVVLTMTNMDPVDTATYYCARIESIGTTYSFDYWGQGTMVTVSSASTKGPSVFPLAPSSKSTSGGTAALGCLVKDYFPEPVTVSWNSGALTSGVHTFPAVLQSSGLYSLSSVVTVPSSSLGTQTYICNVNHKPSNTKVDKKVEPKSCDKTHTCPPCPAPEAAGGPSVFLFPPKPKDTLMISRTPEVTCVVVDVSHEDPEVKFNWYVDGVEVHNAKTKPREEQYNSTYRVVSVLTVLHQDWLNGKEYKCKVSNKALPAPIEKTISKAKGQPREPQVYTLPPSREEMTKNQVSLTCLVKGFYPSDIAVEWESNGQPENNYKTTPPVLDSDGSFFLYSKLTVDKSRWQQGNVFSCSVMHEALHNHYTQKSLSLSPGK
light: DTVLTQSPATLSLSPGERATLSCRASESVSTHMHWYQQKPGQAPRLLIYGASNLESGVPARFSGSGSGTDFTLTISSLEPEDFAVYFCQQSWNDPFTFGQGTKLEIKRTVAAPSVFIFPPEFVLTQSPGTLSLSPGERATLSCERSSGDIGDSYVSWYQQKPGQAPRLVIYADDQRPSGIPDRFSGSGSGTDFTLTISRLEPEDFAVYYCQSYDINIDIVFGGGTKVEIKGTVAAPSVFIFPPSDEQLKSGTASVVCLLNNFYPREAKVQWKVDNALQSGNSQESVTEQDSKDSTYSLSSTLTLSKADYEKHKVYACEVTHQGLSSPVTKSFNRGEC
notes: DVD-Ig, outer hBDB-4G8.3 (VEGF), inner hBDI-9E8.4 (PDGF); IgG1 L234A, L235A / kappa
IC50 [4]: 86 pM
NIH-3T3 hPDGF-BB Potency IC50 [5]: 365 pM

B6: 4G8.3-SL-9E8.4 (g) anti-VEGF-A/anti-PDGF-BB DVD-Ig (PR-1572105) (bispecific antibody, human IgG1, kappa, L234A L235A)
heavy: EVQLVQSGSELKKPGASVKVSCKASGYTFTNYGMYWVRQAPGQGLEWMGWINTETGKPTYADDFKGRFVFSLDTSVSTAYLQISSLKAEDTAVYYCARTNYYYRSYIFYFDYWGQGTMVTVSSASTKGPEVTLRESGPALVKPTQTLTLTCTFSGFSLSTYGMGVGWIRQPPGKALEWLANIWWDDDKYYNPSLKNRLTISKDTSKNQVVLTMTNMDPVDTATYYCARIESIGTTYSFDYWGQGTMVTVSSASTKGPSVFPLAPSSKSTSGGTAALGCLVKDYFPEPVTVSWNSGALTSGVHTFPAVLQSSGLYSLSSVVTVPSSSLGTQTYICNVNHKPSNTKVDKKVEPKSCDKTHTCPPCPAPEAAGGPSVFLFPPKPKDTLMISRTPEVTCVVVDVSHEDPEVKFNWYVDGVEVHNAKTKPREEQYNSTYRVVSVLTVLHQDWLNGKEYKCKVSNKALPAPIEKTISKAKGQPREPQVYTLPPSREEMTKNQVSLTCLVKGFYPSDIAVEWESNGQPENNYKTTPPVLDSDGSFFLYSKLTVDKSRWQQGNVFSCSVMHEALHNAYTQKSLSLSPGK
light: B5 light with G231R
Co-incubation Potency IC50 (nM) hPDGF-BB (NIH-3T3 proliferation, DVD-Ig pre-incubated with excess hVEGF165) [3]: 0.047 nM
Potency IC50 (nM) cynoPDGF-BB (NIH-3T3 proliferation) [1]: 0.142 nM
Potency IC50 (nM) ratPDGF-BB (NIH-3T3 proliferation) (recombinant rat PDGF-BB): 1.3 nM
Potency IC50 (nM) mPDGF-BB (NIH-3T3 proliferation) [2]: 0.096 nM

The next lines start with the values.

Co-incubation Potency IC50 (nM) hPDGF-BB (NIH-3T3 proliferation, DVD-Ig pre-incubated with excess hVEGF165) [3]: 0.04 nM
Potency IC50 (nM) cynoPDGF-BB (NIH-3T3 proliferation) [1]: 0.035 nM
Potency IC50 (nM) ratPDGF-BB (NIH-3T3 proliferation) (recombinant rat PDGF-BB): 0.038 nM
Potency IC50 (nM) mPDGF-BB (NIH-3T3 proliferation) [2]: 0.032 nM
B2: 9E10.1_GS_CL-33675 anti-VEGF-A/anti-PDGF-BB DVD-Ig (PR-1610561) (bispecific antibody, human IgG1, kappa, L234A L235A)
heavy: EIQLVQSGSELKKPGASVKVSCKASGYTFTNYGMYWVKQAPGQGLEYMGWIDTETGRPTYADDFKGRFVFSLDTSVSTAYLQISSLKAEDTAVYFCARWSGDTTGIRGPWFAYWGQGTLVTVSSGGGGSGGGGSEVTLRESGPALVKPTQTLTLTCTFSGFSLSTYGMGVGWIRQPPGKALEWLANIWWDDDKYYNPSLKNRLTISKDTSKNQVVLTMTNMDPVDTATYYCARIESSGPKYSFDYWGQGTMVTVSSASTKGPSVFPLAPSSKSTSGGTAALGCLVKDYFPEPVTVSWNSGALTSGVHTFPAVLQSSGLYSLSSVVTVPSSSLGTQTYICNVNHKPSNTKVDKKVEPKSCDKTHTCPPCPAPEAAGGPSVFLFPPKPKDTLMISRTPEVTCVVVDVSHEDPEVKFNWYVDGVEVHNAKTKPREEQYNSTYRVVSVLTVLHQDWLNGKEYKCKVSNKALPAPIEKTISKAKGQPREPQVYTLPPSREEMTKNQVSLTCLVKGFYPSDIAVEWESNGQPENNYKTTPPVLDSDGSFFLYSKLTVDKSRWQQGNVFSCSVMHEALHNAYTQKSLSLSPGK
light: DIRMTQSPSSLSASVGDRVTIECLASEDIYSDLAWYQQKPGKSPKLLIYNANGLQNGVPSRFSGSGSGTDYSLTISSLQPEDVATYFCQQYNYFPGTFGQGTKLEIKGGSGGGGSGGEIVLTQSPGTLSLSPGERATLSCRASSGSIWYSFVSWYQQKPGQAPRLLIYADDQRASGIPDRFSGSGSGTDFTLTISRLEPEDFAVYYCQSYGINIDVVFGGGTKVEIKRTVAAPSVFIFPPSDEQLKSGTASVVCLLNNFYPREAKVQWKVDNALQSGNSQESVTEQDSKDSTYSLSSTLTLSKADYEKHKVYACEVTHQGLSSPVTKSFNRGEC

Co-incubation Potency IC50 (nM) hPDGF-BB (NIH-3T3 proliferation, DVD-Ig pre-incubated with excess hVEGF165) [3]: 0.032 nM
Potency IC50 (nM) cynoPDGF-BB (NIH-3T3 proliferation) [1]: 0.139 nM
Potency IC50 (nM) ratPDGF-BB (NIH-3T3 proliferation) (recombinant rat PDGF-BB): 1.51 nM
Potency IC50 (nM) mPDGF-BB (NIH-3T3 proliferation) [2]: 0.134 nM
B4: hVEGF 4G8.3-GS-hPDGF 9E8.4 [hu IgG1/k] mut(234, 235) H435A (PR-1569574) (bispecific antibody)
heavy: B3 heavy
light: B3 light with R228G

Co-incubation Potency IC50 (nM) hPDGF-BB (NIH-3T3 proliferation, DVD-Ig pre-incubated with excess hVEGF165) [3]: 0.038 nM
Potency IC50 (nM) cynoPDGF-BB (NIH-3T3 proliferation) [1]: 0.144 nM
Potency IC50 (nM) ratPDGF-BB (NIH-3T3 proliferation) (recombinant rat PDGF-BB): 0.994 nM
Potency IC50 (nM) mPDGF-BB (NIH-3T3 proliferation) [2]: 0.15 nM
B7: hVEGF 4G8.3-SL-hPDGF 9E8.4 [hu IgG1/k] mut(234, 235) H435A (PR-1569579) (bispecific antibody)
heavy: B6 heavy
light: B5 light
